Measured values: patent US20250206836A1 (ONA THERAPEUTICS S L, published 2025)

Key:
[1] = molecular target: T1, mouse CD36 (on HEK 293 cells) (mouse, UniProt Q08857 1-472); experiment: FACS, HEK 293 cells transiently overexpressing CD36;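 note: antibody binding to transfected cells detected by flow cytometry with a fluorescent anti-human secondary antibody, EC50 from a four-parameter sigmoidal fit of mean fluorescence intensity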
T1 construct: also called Murine CD36
Method: (§1) After transiently transfecting the HEK 293 cells with a CD36 expression construct, cells were treated with three-fold serial dilution of each candidate antibody (10 dilutions starting at 500 nM). […] After incubation with the cells, an anti-human fluorescently labelled antibody was added to the cell media, allowed to incubate further, and the unbound antibody was washed off of the cells. Subsequently, the cells were subjected to FACS analysis to determine antibody binding to the cells. The results were fitted to a sigmoidal titration curve. Using a nonlinear regression model, the EC₅₀ values for each antibody were calculated from the GeoMFI and MFI values using the log(agonist) versus response (four parameters) fitting on the data transformed according to X=Log[X] in GraphPad PRISM.

[2] = molecular target: T2, nonhuman primate CD36 (on HEK 293 cells) (cynomolgus monkey / rhesus macaque, UniProt P16671 2-472 (human entry)); experiment: as above
T2 construct: also called non-human primate CD36 (cynomolgus)
T2 sequence (P16671 other isoform, or with tags, fused parts or gaps limits assumed): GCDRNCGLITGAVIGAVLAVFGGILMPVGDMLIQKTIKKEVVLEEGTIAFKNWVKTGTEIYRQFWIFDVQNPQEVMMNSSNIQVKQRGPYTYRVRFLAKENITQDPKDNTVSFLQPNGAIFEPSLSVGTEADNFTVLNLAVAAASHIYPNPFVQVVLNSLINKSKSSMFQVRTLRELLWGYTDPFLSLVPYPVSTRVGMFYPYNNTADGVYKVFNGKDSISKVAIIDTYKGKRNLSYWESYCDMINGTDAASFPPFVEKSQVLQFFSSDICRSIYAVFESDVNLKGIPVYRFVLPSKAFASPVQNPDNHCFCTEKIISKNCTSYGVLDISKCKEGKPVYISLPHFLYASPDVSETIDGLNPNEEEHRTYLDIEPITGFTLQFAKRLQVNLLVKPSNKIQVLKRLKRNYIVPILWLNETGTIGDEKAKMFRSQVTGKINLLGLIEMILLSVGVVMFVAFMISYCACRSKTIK
Method: as §1

[3] = molecular target: T3, human CD36 (on HEK 293 or SCC25 cells) (human, UniProt P16671 2-472); experiment: FACS, HEK 293 cells
T3 construct: Overexpressed transiently or stably on HEK 293 cells, or stably on SCC25 cells; also called huCD36
T3 sequence (P16671 2-472 limits assumed): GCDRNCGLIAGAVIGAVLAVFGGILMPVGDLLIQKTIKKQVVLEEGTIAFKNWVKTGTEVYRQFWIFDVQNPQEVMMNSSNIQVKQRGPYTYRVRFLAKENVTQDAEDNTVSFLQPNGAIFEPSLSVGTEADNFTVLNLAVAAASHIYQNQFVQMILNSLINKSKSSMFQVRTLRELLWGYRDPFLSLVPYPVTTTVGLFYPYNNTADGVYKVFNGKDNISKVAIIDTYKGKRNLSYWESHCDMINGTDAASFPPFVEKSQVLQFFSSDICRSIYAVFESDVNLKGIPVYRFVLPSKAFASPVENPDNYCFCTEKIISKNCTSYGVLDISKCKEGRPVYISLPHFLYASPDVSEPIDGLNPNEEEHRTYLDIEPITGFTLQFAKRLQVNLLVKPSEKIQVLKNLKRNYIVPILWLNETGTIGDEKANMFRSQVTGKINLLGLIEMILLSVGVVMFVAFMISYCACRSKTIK

T1 sequence (Q08857 whole entry): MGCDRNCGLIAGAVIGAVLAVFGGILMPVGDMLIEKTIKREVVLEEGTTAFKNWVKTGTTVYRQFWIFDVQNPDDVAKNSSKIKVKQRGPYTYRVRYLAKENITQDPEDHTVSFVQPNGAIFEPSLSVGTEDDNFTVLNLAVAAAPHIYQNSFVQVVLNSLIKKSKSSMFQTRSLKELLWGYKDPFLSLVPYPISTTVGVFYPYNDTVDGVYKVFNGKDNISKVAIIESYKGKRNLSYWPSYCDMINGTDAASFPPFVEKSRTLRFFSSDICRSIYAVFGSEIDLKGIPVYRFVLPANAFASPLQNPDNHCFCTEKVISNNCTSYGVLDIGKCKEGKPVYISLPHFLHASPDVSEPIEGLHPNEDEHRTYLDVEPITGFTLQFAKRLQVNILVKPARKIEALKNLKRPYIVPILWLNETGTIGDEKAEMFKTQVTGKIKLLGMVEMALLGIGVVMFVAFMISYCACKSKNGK

B1: 20G04 (antibody, human IgG1, V domains shown)
VH: QIQLVQSGPELVKPGASVKISCETSGHTFTEYTMHWVKQSHGKSLEWIGGIYPNNGATKYNQKFKGKATLTVDKSSSTAYMELRSLTSEDSAVYYCARDRYDVWFAYWGQGTLVTVSA
VL: ETTVTQSPASLSVATGEKVTIRCITSTDIDDDMNWYQQKPGEPPKLLISEGNTLRPGVPSRFSSGGYGTDFVFTVENMLSEDVADYYCLQSDNLPLTFGAGTKLELK
notes: Chimeric: mouse variable regions on human IgG1 LALA (L234A/L235A)
[1]
  EC50: 18.2 nM
[2]
  EC50: 5.03 nM
[3]
  binding result: binds
